Reference: US7960513B2, “Antibody against a human ADAM protease” (Monash University, priority 2004, dated 2011)

Molecular target: T1, EphA3/ephrin-A5 complex (Homo sapiens, UniProt P29320+P52803)
T1 construct: Fc fusion proteins of the ephrin-A5 and EphA3 extracellular domains fused to the hinge and Fc region of human IgG1 were produced as described; expressed in transfected cells; host or cells: EphA3/HEK293 cells; ephrin-A5-Fc added as soluble pre-clustered protein
T1 sequence (P29320 21-983): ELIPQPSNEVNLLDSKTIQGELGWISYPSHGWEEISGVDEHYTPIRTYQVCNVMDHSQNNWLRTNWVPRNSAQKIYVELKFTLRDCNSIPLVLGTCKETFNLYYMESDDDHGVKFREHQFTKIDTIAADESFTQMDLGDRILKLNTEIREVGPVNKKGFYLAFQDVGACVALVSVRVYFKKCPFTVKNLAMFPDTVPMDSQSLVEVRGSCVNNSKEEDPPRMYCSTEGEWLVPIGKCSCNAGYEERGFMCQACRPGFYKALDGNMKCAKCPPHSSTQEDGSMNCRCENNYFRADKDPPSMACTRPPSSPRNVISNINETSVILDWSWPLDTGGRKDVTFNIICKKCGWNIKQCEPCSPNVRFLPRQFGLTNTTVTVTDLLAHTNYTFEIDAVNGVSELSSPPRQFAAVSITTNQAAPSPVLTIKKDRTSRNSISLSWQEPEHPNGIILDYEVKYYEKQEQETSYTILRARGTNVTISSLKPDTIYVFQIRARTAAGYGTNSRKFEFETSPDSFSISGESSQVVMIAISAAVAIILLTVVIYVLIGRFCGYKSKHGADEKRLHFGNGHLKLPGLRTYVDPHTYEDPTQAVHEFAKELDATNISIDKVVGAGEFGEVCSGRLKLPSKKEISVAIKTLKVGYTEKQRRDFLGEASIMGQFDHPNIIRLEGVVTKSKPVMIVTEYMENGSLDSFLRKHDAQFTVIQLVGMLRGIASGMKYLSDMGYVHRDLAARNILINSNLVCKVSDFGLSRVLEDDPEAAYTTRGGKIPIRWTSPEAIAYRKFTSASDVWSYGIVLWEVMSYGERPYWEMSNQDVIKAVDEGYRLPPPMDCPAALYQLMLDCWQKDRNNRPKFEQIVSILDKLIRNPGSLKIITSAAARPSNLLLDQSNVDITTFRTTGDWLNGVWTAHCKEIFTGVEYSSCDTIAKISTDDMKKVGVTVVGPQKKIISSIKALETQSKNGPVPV
T1 sequence (P52803 21-203 limits assumed): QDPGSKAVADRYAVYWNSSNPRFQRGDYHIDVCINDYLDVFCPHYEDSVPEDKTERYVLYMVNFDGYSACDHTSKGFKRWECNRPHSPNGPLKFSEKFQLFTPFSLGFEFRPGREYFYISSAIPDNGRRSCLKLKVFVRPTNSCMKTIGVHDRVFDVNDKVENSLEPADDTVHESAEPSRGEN
Assay: Co-immunoprecipitation from transfected cells treated with pre-clustered ephrin-A5-Fc
Assay type: cell-based
Settings: EphA3/293 cells, pre-clustered ephrin-A5-Fc 10 min
Method: FIG. 4. Mutation of acidic residues in the ADAM10 Cys-rich domain affects binding to EphA3/ephrin-A5 and cleavage of ephrin-A5. • A. In vitro binding of mutant ADAM10D+C to EphA3/ephrin-A5. ADAM10D+C[EEE-A] containing Alanine substitutions of Glu573, Glu578, Glu579 (lanes 1-4) or ADAM10D+C[RDD-A] (Ala substitutions of Arg525, Asp526, Asp527, lanes 5-8) were incubated alone (lanes 1, 5), or together with EphA3-Fc (lanes 2, 6), ephrin-A5-Fc (lanes 3, 7), or EphA3-Fc and ephrin-A5 (lanes 4, 8). Complexed proteins were extracted with Protein-A-Sepharose beads and analysed as in FIG. 2. • B. Binding of wild-type and mutant ADAM10ΔMP to EphA3 in cells. EphA3/293 cells were transfected with HA-ADAM10ΔMP or HA-ADAM10ΔMP [EEE-A]. Parental and transfected cells were treated for 10 min with or without pre-clustered ephrin-A5-Fc and lysed. Anti-HA and anti-EphA3 immunoprecipitates, and total cell lysates were analysed by Western blotting with indicated antibodies. • C. Ephrin-A5-Fc cleavage in cells expressing wt and 3A mutant ADAM10. EphA3/293 cells were transfected with full length, wild-type (wt) ADAM10, dominant-negative ADAM10ΔMP, or ADAM10 bearing alanine (3A) or 3 lysine (3K) substitutions of Glu573, 578, 579. Following exposure to clustered (+) or non-clustered ? ephrin-A5 Fc, cleaved ephrin was recovered and analysed by Western Blot as described in FIG. 1c. […]

B1: ADAM10Δpro: cell-surface ADAM10Δpro incorporating the EEE-A amino acid substitutions (protein)
chain: SGQPICGNGMVEQGEECDCGYSDQCKDDCCFDANQPEGKKCKLKPGKQCSPSQGPCCTAQCAFKSKSEKCRDDSDCAKEGICNGFTALCPASDPKPNFTDCNRHTQVCINGQCAGSICAKYDLAACTCASSDGKDDKELCHVCCMKKMAPSTCASTGSLQWSKQFSGRTITLQPGSPCNDFRGYCDVFMRCRLVDADGPLARLKKAIFSPQLYENIAEWIVAHWWAVLLMGIALIMLMAGFIKICSVHTPSSNPKLPPPKPLPGTLKRRRPPQPIQQPPRQRPRESYQMGHMRR
modifications: left off: small tags and cut ends
notes: cell-surface ADAM10Δpro incorporating the EEE-A amino acid substitutions
  interaction with the EphA3/ephrin-A5 complex in cells: significantly inhibited
